# Data from patent US20220144934A1 (Janssen / Centocor, published 2022).
# Changes are numbered by the printed parent chain. Names and notes keep the numbering of the source.
# T1: human lymphotoxin (human, UniProt P01374 35-205, limits assumed)
# T1 sequence (looked up): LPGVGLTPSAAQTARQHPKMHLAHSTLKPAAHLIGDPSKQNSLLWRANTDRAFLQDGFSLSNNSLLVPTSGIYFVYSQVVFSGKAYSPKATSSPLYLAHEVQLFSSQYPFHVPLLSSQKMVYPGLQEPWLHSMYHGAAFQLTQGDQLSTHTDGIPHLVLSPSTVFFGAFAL
# B1: GenTNV148.26.12 (antibody, human IgG1, kappa, V domains shown)
# VH: QVQLVESGGGVVQPGRSLRLSCAASGFIFSSYAMHWVRQAPGNGLEWVAFMSYDGSNKKYADSVKGRFTISRDNPKNTLYLQMNSLRAEDTAVYYCARDRGIAAGGNYYYYGMDVWGQGTTVTVSS
# VL: EIVLTQSPATLSLSPGERATLSCRASQSVYSYLAWYQQKPGQAPRLLIYDASNRATGIPARFSGSGSGTDFTLTISSLEPEDFAVYYCQQRSNWPPFTFGPGTKVDIKR
# notes: also called C420A
# B2: GenTNV86.14.34 (antibody, human IgG1, kappa, V domains shown)
# VH: B1 VH
# VL: B1 VL
# notes: also called C417A
# B3: golimumab (antibody, human IgG1, kappa, V domains shown)
# VH: B1 VH with P75S
# VL: B1 VL
# modifications: partial cyclic succinimide at LC Asn93 (LC cycAsn93); N-glycosylated on asparagine 306; partial deamidation of HC Asn43
# notes: Fully human IgG1 kappa, produced in Sp2/0 cells; also called SIMPONI
# How the values were obtained:
# [1] = target: T2, recombinant human TNFα (human, UniProt P01375 77-233, 125I-labeled in the receptor-blocking assay ; 125I-labelled (positions not stated) only in the receptor-blocking assay; soluble homotrimer of this 17 kD subunit); experiment: inhibition of 125I-TNFα binding to plate-coated p55-sf2 by hybridoma supernatant
# T2 construct: also called huTNFα; soluble human tumor necrosis factor alpha
# Protocol: (§1) Although eight TNV mAb samples were tested in these experiments, for simplicity three of the mAbs that were shown by DNA sequence analyses to be identical to one of the other TNV mAbs (see Section 5.2.2) are not shown here. Each sample was tested in duplicate. The results shown are representative of two independent experiments.
# (§2) 50:1 of p55-sf2 at 0.5 :g/ml in PBS was added to Optiplates to coat the wells during a one-hour incubation at 37° C. Serial dilutions of the eight TNV cell supernatants were prepared in 96-well round-bottom plates using PBS/0.1% BSA as diluent. […] The mixture was preincubated for one hour at RT. […] After 2 hrs at RT, Optiplates were washed three times with PBS-Tween. […] of Microscint-20 was added and the cpm bound determined using the TopCount gamma counter.
# [2] = target: T2, recombinant human TNFα; experiment: cell-based or functional assay
# [3] = target: T2, recombinant human TNFα; experiment: competition radioligand assay: mAb in hybridoma supernatant preincubated with 5 ng/ml 125I-TNFα, then 125I-TNFα bound to plate-coated p55-sf2 (TNF receptor/IgG fusion) counted as cpm
# Protocol: as §1, §2
# [4] = target: T1, human lymphotoxin; experiment: not described
Binder,fold better at blocking TNF binding than TNV118 and TNV14 [1] [fold],neutralizing TNFα bioactivity (potency relative to TNV14) [2] [fold],IC50 (read off the curve) [3] [ng/mL],binding result [4]
B1,~4,4,~3,
B2,~4,,,
B3,,,,no binding
